Experiment: yeast display, Sf9 membrane polyspecificity reagent, FACS + sequencing; frameworks hold sequencing errors
Procedure, shortened: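 Nanobodies came from a synthetic yeast display library in Saccharomyces cerevisiae BJ5465, induced with galactose for 36–48 hours and stained for 1 hour at 4 °C with 10% biotinylated, detergent-solubilized Sf9 membrane reagent. Cells were enriched on streptavidin microbeads and then FACS-sorted, with low and high (top ~1%) gates set on anti-HA fluorescence for expression and streptavidin fluorescence for reagent binding. Each polyreactivity label reflects the gate a clone came from. Genes were amplified by colony PCR, sequenced by MiSeq 2 × 250 and filtered by CDR length.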

Sequence	polyreactivity (PSR sort gate)
QVQLVESGGGLVQAGGSLRLSCAASGRTFSRYAMGWYRRAPGKERELVAAITKSGGSTYYADSVKGRFTISRDNAKITVYLQMNSLKPEDTAVYYCAVRYGGRFFRKYDYWGQGTQVTVSS	high polyreactivity
QVQLVESGGGLVQAGGSLRLSCAASGFTFYYYDMGWYRQAPGKERELVAAITTGGSTKYADSVKGRFTISRDNAKNTVYLQMNSLKPEDTAVYYCNADDSVYVFSKYDYWGQGTQVTVSS	high polyreactivity
QVQLVESGGGLVQAGGSLRLSCAASRSTLCQNAMGWYRQAPGKEREFVADNSGSGDSTYYADSVKGRFTISRDHANNTVYLQLNSLTPEDTAVYYCATPSPHVGLKWEYDSWGQGTQVTVSS	low polyreactivity
QVQLVESGGGLDQAGGSLRLRCAASGRNFRWYTMVWYRQAPGKEREFVAAITWSDTSTSYADSVKGRFTISRDNAKNTVYLQMNSLIPEYTAVYYCNAGDKVSSYWYDYWGQGTQVNVSS	low polyreactivity
QVQLVESGGGLVQAGGSLRLSCAASGRTFWAYAMGWYRQAPGKERELVAAITTSGGSTNYADSVKGRFTISRDNAKNTVYLQMNSLKPEDTAVYYCNADPTYHVVNGVGYLGQGTQVTVSS	low polyreactivity
QVQLVESGGGLVQAGGSLRLSCAASGSTFRGYAMGWSRQAPGKERELVATITSGGSTKFADSVKGRVTISRDNAKNTVYLQMNSLKPEDTAVYYFNAGPRSWSPYRHWVDFWGQGTQVTVSS	low polyreactivity
QVQLVESGGGLVQAGGSLRLSCAASGRTFQPYAMGWYRQAPGKERELVAAITSIGGSTFYADSVKGRFTISRDNAKNTVYLQMNSLKPEDTAVYYCARRGYYRSIWERDYWGQGTQVTVSS	low polyreactivity
QVQLVESGGGVVQAGGSLRLTCAASGRTCPIYAMGWYRQAPGKERELVATITWNDGNTYYADSVKGRFTISRDNAKNTVYLQMNCLKPEDTAVYYCAAKGGWPWHYHYQKNSEYDYWGQGTQVTVSS	low polyreactivity
QVQLVESGGGLVQAGGSLRLSCAASGFIFVVNAMGWYRQAPGKEREFVAVISSSTGSTYYADSVKGRFTISRDNAKNTVYLQMNSLKPEDTAVYYCAAASRRRRPLNRMDYWGQGTQVTVSS	low polyreactivity
QVQLVESGGGLVQAGGSLRLSCAASGSTFAYYAMGWYRQAPGKERELVAGISGSGGSTYYADSVKGRFTISRDNAKNTVYLQLNSLKPEDTAVYYCAVVQRSKRTYPWYDYWGQGTQVTVSS	low polyreactivity
QVQLVESGGGLVQAGGSLRLSCAASGRISQGYAMGWYRQAPGKERELVPGISRSGGSTYYADSVKGRFTISPDNAKNTVYLQMHSLKPEDTAVYYCAAQSWYGFPNYYWGQGSQVTVSS	high polyreactivity
QVQLVESGGGLVQAGGSLRLICAASGFIFTYYGMGWYRQAPGKERELVAAITWSGASTYYADSVKGRFTISRDNAKNTVYLQMNSLKPEDTAVYYCNAGWDSGIVQSDETVYKYDYWGQGTQVTVSS	low polyreactivity
QVQLVESGGGLVQAGGSLRLSCAASGYTFVYYAMGWYRQAPGKERELVAAITGNSGSTYADSVKGRFTISRDNAKNTVYLQMNSLNPEDTAVYYCAADQTGQDWYYVEFDYWGQGTQVTVSS	low polyreactivity
QVQLVESGGGLVQAGGTLRLSCAASGRTFRNNAMGWYRQAPGKEWELVAAISLRGGSTYYADSVKGRFTISRDNAKNTVYLLMNSLKPEDTAVYYCATRSRGWIAPPWQGSDGYYYWGQGTQVTVSS	low polyreactivity
QVQLVESGGGLVQAGGSLRLSCAASGSTFDYNTMGWYRQAPGKERELVAAISESGGSTYYADSVKGRFTISRDNAKNTVYLQMNSLKPEDTAVSYCATDDFGGYFGEYDYWGQGTQVTVSS	low polyreactivity
QVQLVESGGGLVQAGGSLRLSCAASGSIFDYYAMGWYRQAPGKERELVAAISTSTSSTYYADSVKGRFTISRDNAKNTVYLQMNSLKPEDTAVYYCAAEGESQPESPGYDYWGQGTQVTVSS	low polyreactivity
QVQLVESGGGLVQAGGSLRLSCAASGSISGRYAMGWSRQAPGKEMELVAAISWIGGSTYYADSVKGRFTISRDNAKNTVYLQMISLKPEDTAVYYCYVTIDTRTDPLLVVLYGYDYWGQGTLVTVSS	low polyreactivity
QVQLVESGGGLVQAGRSLRLSCAASGRTFVFNAMGWYRQAPGKERELVARITLSGGSTYYADSVKGRFTISRDNAKNTVYLQMNSLKPEDTAVYYCAASHYFWFVQNDSDYWGQGTQVTVSS	low polyreactivity
QVQLVESGGGLVQAGGSLRLSCAASGIIFKLYAMGWYRQAPGKEREFVATITKTGGRTYYADSVKGRFTISRDNAKNTVYLQMNSLKPEDTAVYYCAARRVNGKMYYWGQGTQVTVSS	high polyreactivity
QVQLVESGGGLVQAGGSLRLSSAASGSTFFTNALGWYRPAPGKERELGAVITKRGGSTYYADSVKGRFTISRDNAKNPVYLQMNSLKPEDTAVYYCAARIPKQQGYGYWGQGTQVTVSS	high polyreactivity
QVQLEESRGGLVQAGGSLRLSCAASGRIFPVYVMGWDRQAPGKERELVAAINYNGGSTTDADSVKGRFTISRDNAKNTVDLQMNSLKPEDTAVYYCAKVGVLGYYTYYYWGQGIQVTVSS	low polyreactivity
QVQLVESGGGLVQAGGSLRLSCAASGLIFIIYTMGWYRQAPGKERELVAAITRRGGITYYADSVKGRFTISRDYAKNTVYLQMNSLKPEDTAVYYCAVVRPYNIWYDYWGQGTQVTVSS	low polyreactivity

Sequence	polyreactivity (PSR sort gate)
QVQLVESGGGLVQAGGSLRLSCAAYGRTFGRYAMGCYRPAPGKERELVAAITVGGGSKYYADSVKGRFTISRDNAKNTVYLQMNSLKPEDTAVYYCNALHTYTYRYDYYYWGQGTQVTVSS	high polyreactivity
QVQLVESGGGLVQAGGSLRLSCAASGRIFSYYAMGWYRQAPGKERELVAAISRSGGRTYYADSVKGRFTISRDNAKNTVYLQMNSLKPEDTAVYYCAALQRDYSGRYPVSMYYWGQGTQVTVSS	high polyreactivity
QVQLVESGGGLVQAGGRLRLSCAASGRILRWYTMGWYRQAPGKERELVAAITSRGGSTYYADSVKGRFTISRDNAKNTVYLQMNSLKPEDTAVYYCAAVSWYTRLTYYYWGQGTQVTVSS	high polyreactivity
QVQLVESGGGLVQAGGSLRLSCAASGRIFSNNAMGWYRQAPGKERELVAAITNSGGSTYYADSVKGRFTISRDNAKNTVYLQMNSLKPEDTAVYYCAADHLSVQYDVYWTYYYWGQGTQVTVSS	low polyreactivity
QVQLVESGGGLVQAGGSLRLSCAASGRTFYRYSMGWYRQAPAKERELVAAISSSGGRTYYADSVKGRFTISRDNAKNTVYLQMNSLKPEDTAVYYCIKAYYYWYDWGQGTQVTVSS	high polyreactivity
QFQLVESGGGLVQAGGSLRLSCAASGLIFRRYAMGWYRQAPGKEREFVAAISWSGGSTYYADSVKGRFTISRDNAKNSVYLQINSLKPEDTGVSYFAAYDKSLYGSGYDYWGQGTQVTVSP	high polyreactivity
QDHLVESGGGLVQAGGSLRLSCAASGISFSVNAMGWSRQAPGKERELVASISSGGSTNYADSVTGRFTISRDNAKNTVYLQMNSLNPEDTAVSYCAAGYWNDFDWGQGTQVTVSS	low polyreactivity
QVQLVESGGGLVQAGGSLRLSSAASGFTFRIYAMGWYRQAPGKERELVATISWSGTSTYYADSVKGRFTISRDNAKNTVYLQMNSLKPEDTAVYYCAKDGVSFYWLNKYYYWGQGTQVTVSS	low polyreactivity
QVQLVESGGGLVQAGGSLRLSCAASGSIFRLYAMGWYRQAPGKERELVAAISRRGGSTNYADSVKGRFTISRDNAKNTVYLQMNSLKPEDTAVYYCARDVDTHYPYAYDYWGQGTQVTVSS	high polyreactivity
QVQLVESGGGLVQAGGSLRLSCAASGSTFDVNTMGWYRQAPGTERELVAAIRLRGGSTYYADSVKGRFTISRDNAKNTVYLQMNSLKPEDTAVYYCAADYTLIYDYWGQGTQVTVSS	low polyreactivity
QDQHVESGGGLVQAGGSLRLSCAASGSTFPTNAMGWYRQAPGKERELVADITIRGGGTSYADSVKGRFTISRDNAKNTVYLQMNSLKPEDTEVYYCARSKSTELKRLLYDSWGQGTQVTVSS	low polyreactivity
QVQLVESGGGLVQAGGSLRLSCAASGSTFYCYVMGWYRQAPGKERALVAAISSGGGTYYADSVKGRFTISRDNAKNTVYLQMNSLKPEDTAVYYSAADASDGQSWYEDYEYDYWGQGTQVTVSS	low polyreactivity
QVQLVESGGGLVQAAGSLRLSCAASGSIFDPNVMGWYRQAPGKERELVATISSDGTTTYADSVKGRFTISRDNAKNTVYLQMNSLKPEDTAVYYCATEWDIDPRRSVGYPIGYGYWGQGTQVTVSS	low polyreactivity
QVQLVESGGGLVQAGGSLRLSCAASGSTFVVYAMGWYRQAPGKERELVAAISYRAGITYYADSVKGRFTISRDNAKNTVYLQMNSLKPEDTAVYYWAADRYYGVGSGYWGQGTQVTVSS	high polyreactivity
QVQLVESGGGLVQAGGSLRLSCAASGRTFRRYAKGWYRQAPGKERELVATIRSGDNTNYADSVKGRFTISRDNAKNTVYLQMNSLKPEDTAVYYCNRSPKSGQVTYLYSVNAHYDYWGQGTQVSVSS	low polyreactivity
QVQLVESGGGLVQAGGSLRLSCAASGLTFYSYAMGWYRQAPGKERELVAAISKSGGSTYYADSVKGRFTISRDNAKNTVYLQMNSLKPEDTAVYYCNALTKTGTPPDYDYWGQGTQVTVSS	high polyreactivity
QVQLQESGGGLVQAGGSLRLSCSASGTISDSGLMGWYRQAPGKERELVAGISSGGITNDADSVNRRFTISRDNALFTVYLQMNSLKPEDTALYWGEGTQVTVSS	low polyreactivity
QVQLVESGGGLVQAGGSLRLSCPASGHIFDYNALGWYRQAPGKERELVAAITSGGTTTYADSVKGRFTISRDNAKHTVYLQMNSLKPEDTAVYYCARKRYFGGWSRYGYGYWGQGTQVTVSS	high polyreactivity
QVQLVESGGGLVQAGGSLRLSCAASGSTFYYNAMGWYRQAHGKERELVARISRSGGSTYADSVKGRFTISRDNAKNTVYLQMNSLKPEDTAVYYCNADAYGTPEFTSYAVRYDYWGQGTQVTVSS	low polyreactivity
QVQLVESGGGLVQAGGSLRLSCAASGIILRRYAMGWYRQAPGKERELVARISYRGGRTNYADSVKGRFTISRDNAKNTVYLQMNSLKPEDTAVYYCAAVAWYYHEGTAYNYWGQGTQVTVSS	high polyreactivity
QVQLVESGGGLFQAGRSLRLSCAASGRIFVANAMGWYRQAPGIERELVAAISGRGSRTYYADSVKGRFTISRDNAKNTVYLQMNSLKPEDTAVYYCAARYRYDGRYDYWGQGTQVTVSS	high polyreactivity

From the nanobody polyreactivity screen of Harvey et al. (2022)
